A short description of series [1]: folding stability dG unfold from trypsin proteolysis; higher = more stable. Put shortly:
(§1)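 Mini-proteins designed to be under 80 residues and free of cysteine were carried in a PA-tagged cDNA display construct and digested with trypsin and with chymotrypsin. Each protease was applied at 11 threefold-diluted concentrations, alongside a no-protease condition, before sequencing. K50 came from Bayesian fitting of the sequencing counts, and unfolding free energy was obtained by comparing it with a sequence-predicted unfolded-state K50 and a shared folded-state K50, for each protease separately or for both together. Designs were retained only if their AlphaFold2 dimer inter-PAE exceeded 15.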

Series [2] in a line: folding stability dG unfold from chymotrypsin proteolysis; higher = more stable. In a few lines:
as §1

The nature of series [3]: folding stability dG unfold (combined trypsin and chymotrypsin); higher = more stable. Put shortly: as §1

± gives the half width of the 95% confidence interval.

On to “SAGGSAGGSAGGKTYTAEELRSLPPGAKITLADGKVIEVSIEQLEKEIKPGDTVRIERVPSAGGSAGGSAGG [r7_643_TrROS_Hall]”, for which the “folding stability dG unfold” value in series [1] was 0.542 ± 0.043 kcal/mol; in series [2] it was -0.404 ± 0.17 kcal/mol; in series [3], 0.172 ± 0.09 kcal/mol.
With “SAGGSAGGSAGGKTYTLTFKAKIEVSEDDVVVITPPNGKKLVVPKENVKVHPDGTVTVTGSAGGSAGGSAGG [r7_684_TrMRF]”, the “folding stability dG unfold” value in series [1] was determined as 1.28 ± 0.097 kcal/mol; in series [2], 1.27 ± 0.2 kcal/mol; in series [3], 1.19 ± 0.2 kcal/mol.
Turning to “SAGGSAGGSAGGKVEEVEKLAEELEKELGVDIGEVEVLDHPDKFRYRIRIPDLDLDLEFSAGGSAGGSAGGS [r10_161_TrMRF]”, the “folding stability dG unfold” value in series [1] is -0.529 ± 0.18 kcal/mol; in series [2], -0.0226 ± 0.17 kcal/mol; in series [3], -0.103 ± 0.11 kcal/mol.
The corresponding values for “SAGGSAGGSAGGKVKVLSVFELPNNKRLVLIETPSGKKILIVTDSSDPDKVKEKAKEIASAGGSAGGSAGGS [r10_472_TrMRF]” are 1.54 ± 0.02 kcal/mol, 1.822 ± 0.017 kcal/mol and 1.73 ± 0.037 kcal/mol.
Take “SAGGSAGGSAGGKVLHVPYENIEEKIKEAEEKYPNKEILIHAYLPNGKLLKTIKIKVKKSAGGSAGGSAGGS [r10_741_TrMRF]”: the “folding stability dG unfold” value was 1.29 ± 0.026 kcal/mol in series [1], 1.18 ± 0.03 kcal/mol in series [2] and 1.23 ± 0.053 kcal/mol in series [3].
The corresponding values for “SAGGSAGGSAGGKVSEIDLSGDKVVVTVKGPGGSVVREVHPDKTLEQVLDELLENPELVDSAGGSAGGSAGG [r7_373_TrMRF]” are -0.176 ± 0.1 kcal/mol, 1.55 ± 0.05 kcal/mol and 1.13 ± 0.057 kcal/mol.
The corresponding values for “SAGGSAGGSAGGKWHLITFTITMEMYVMKFDPENGKWKPVDPIPMEIQITFLIPPGDPISAGGSAGGSAGGS [r10_610_TrROS]” are 3.77 ± 0.25 kcal/mol, 5.08 ± 0.2 kcal/mol and 4.65 ± 0.47 kcal/mol.
In the case of “SAGGSAGGSAGGKWIMVDSPEDIKEFAEDQGYKIKVDNVHPFPGDKNHYMVWIEIEPPGSAGGSAGGSAGGS [r10_126_TrROS]”, the “folding stability dG unfold” value is 1.19 ± 0.12 kcal/mol in series [1], 1.13 ± 0.18 kcal/mol in series [2] and 1.18 ± 0.14 kcal/mol in series [3].
In the case of “SAGGSAGGSAGGKYKILKIEKYKLPNGGYYYKALVYEEENGEWKEIYAKANSAKNFKFESAGGSAGGSAGGS [r10_326_TrMRF]”, the “folding stability dG unfold” value in series [1] was found to be 0.828 ± 0.049 kcal/mol; in series [2] it was 1.16 ± 0.11 kcal/mol; in series [3], 1.08 ± 0.1 kcal/mol.
Regarding “SAGGSAGGSAGGLEIELPNARIRIEELEGEPRRIRVRVEFFPPDGGRLSAEAEFDILPDLSAGGSAGGSAGG [r17_184_TrMRF]”, the “folding stability dG unfold” value came out at 2.66 ± 0.056 kcal/mol in series [1], 2.5 ± 0.08 kcal/mol in series [2] and 2.57 ± 0.092 kcal/mol in series [3].
In the case of “SAGGSAGGSAGGLEKLVELLAPGKPLEVLRIDPTPTYVRIVVRHPDYPVDTVILADPDVISAGGSAGGSAGG [r7_303_TrMRF]”, the “folding stability dG unfold” value was 0.237 ± 0.046 kcal/mol in series [1], -0.617 ± 0.11 kcal/mol in series [2] and -0.0768 ± 0.051 kcal/mol in series [3].
The corresponding values for “SAGGSAGGSAGGLLEELKAKGYTVLSTPVPSPPDGVPTRTVLAKKGEGTVTFVVPAALLSAGGSAGGSAGGS [r10_35_JUSTAS]” are -0.172 ± 0.18 kcal/mol, 0.525 ± 0.17 kcal/mol and 0.287 ± 0.23 kcal/mol.
Turning to “SAGGSAGGSAGGLPEGWVLKTETKTVKLKVKVKVDGKEYEFEVEVKVTRIELVPKEELESAGGSAGGSAGGS [r10_300_TrROS_Hall]”, the “folding stability dG unfold” value came out at 3.04 ± 0.23 kcal/mol in series [1], 4.08 ± 0.2 kcal/mol in series [2] and 3.76 ± 0.11 kcal/mol in series [3].
The corresponding values for “SAGGSAGGSAGGLPKPVTVTLSRPEGGETLTLTFPSGTTPEEVRAAVEAEPDLSILSISSSAGGSAGGSAGG [r7_624_JUSTAS]” are 1.2 ± 0.074 kcal/mol, 0.892 ± 0.063 kcal/mol and 1.1 ± 0.059 kcal/mol.
In the case of “SAGGSAGGSAGGLPPFDLGFESVEVEEVFPDGPVVVTVRLPDRTVRLVVVGGRIVRVEPSSAGGSAGGSAGG [r17_396_TrMRF]”, the “folding stability dG unfold” value in series [1] came to 1.68 ± 0.036 kcal/mol; in series [2] it was 1.97 ± 0.048 kcal/mol; in series [3], 1.75 ± 0.085 kcal/mol.

For the origin of these results see the supplement of paper PMC12764529.
